From paper PMC3293223 (Biochemistry, 2012) come the findings set out here.

Series [1] concerns the target thioredoxin mutant including only C32 (TRXC32) (UniProt P10599). In words: cross-linking.
Series [2] concerns the molecule itself. In words: SEC. For orientation: In gel filtration, larger molecules generally elute earlier.

For orientation: stoichiometry N means a count of units in the complex or per binding partner. “thioredoxin mutant including only C32 (TRXC32) (from UniProt P10599 1-105) (enzyme)”: the stoichiometry N in series [1] was 2.

B1: N-terminally truncated APE1 including only Cys 99 with all other Cys residues mutated to Ala (40APE1 C99) (domain or fragment, human, UniProt P27695 41-318, looked up)
chain: GPALYEDPPDQKTSPSGKPATLKIASWNVDGLRAWIKKKGLDWVKEEAPDILALQETKCSENKLPAELQELPGLSHQYWSAPSDKEGYSGVGLLSRQAPLKVSYGIGDEEHDQEGRVIVAEFDSFVLVTAYVPNAGRGLVRLEYRQRWDEAFRKFLKGLASRKPLVLAGDLNVAHEEIDLRNPKGNKKNAGFTPQERQGFGELLQAVPLADSFRHLYPNTPYAYTFWTYMMNARSKNVGWRLDYFLLSHSLLPALADSKIRSKALGSDHAPITLYLAL
modifications: Cys 99 oxidised with 1 mM diamide before the reaction with TRXC32
Turning to B1, in series [2], the binding result is “binds”.
